# Source: US20230212549A1 (3B PHARMACEUTICALS, published 2023)
# Values joined by “and” are separate entries in the source; they are usually repeats but may differ in a detail not shown here. Identical values can stand only once. Numbered stars: 1 amine (or outer) side, 2 acyl side, 3 side chain; on linkers, the order of the positions; unused ones are H or OH. Bridge positions count the residues as written; N and C are the ends. Square brackets hold non-standard residues; d marks the D form. Primed or numbered codes have the meaning given here. * marks the point of attachment. tMeBn(LuDOTA-AET) = 1,3,5-trimethylbenzylidene (from 1,3,5-tris(bromomethyl)benzene) bridge with two thioethers to the Cys, its third CH2 carries AET (2-aminoethanethiol, attached through S), whose amine is acylated by DOTA complexing lutet, O=C([O-])CN1CCN(CC(=O)[O-])CCN(CC(=O)NCCSCc2cc(C[*:1])cc(C[*:2])c2)CCN(CC(=O)[O-])CC1.[Lu+3]; tMeBn(DOTA-PP) = 1,3,5-trimethylbenzylidene, two thioethers to Cys, third CH2 bound to one N of piperazine whose other N bears DOTA, O=C(O)CN1CCN(CC(=O)O)CCN(CC(=O)N2CCN(Cc3cc(C[*:1])cc(C[*:2])c3)CC2)CCN(CC(=O)O)CC1; Ttds″ = 1,13-diamino-4,7,10-trioxatridecan-succinamic acid spacer, O=C(CCC(=O)[*:2])NCCCOCCOCCOCCCN[*:1]; Ttds = 1,13-diamino-4,7,10-trioxatridecan-succinamic acid, O=C(CCC(=O)[*:2])NCCCOCCOCCOCCCN[*:1]; 3MeBn = 3-Methylbenzylidene (m-xylylene thioether bridge from α,α′-dibromo-m-xylene); Ttds(4) = spacer between chelator and peptide, O=C(CCC(=O)[*:2])NCCCOCCOCCOCCCN[*:1]; N4Ac = 6-Carboxy-1,4,8,11-tetraazaundecane, an N4-chelator, NCCNCC(CNCCN)C(=O)*; NODAGA′ = 1,4,7-triazacyclononane-1-glutaric acid-4,7-diacetic acid chelator; 3MeBn(3) = 3-methylbenzylidene (m-xylylene), from α,α′-dibromo-m-xylene; Pro(4S-NH2) = N[C@@H]1CN[C@H](C(=O)O)C1; Pro(4,4-F2) = O=C(O)[C@@H]1CC(F)(F)CN1; mXylylene = c1cc(C[*:1])cc(C[*:2])c1; PPAc = 4-Carboxymethyl piperazine; NMeF = CN[C@@H](Cc1ccccc1)C(=O)O; AF488 = Alexa Fluor 488 label; Pen = CC(C)(S)[C@H](N)C(=O)O; AGLU′ = not defined here; Nle = CCCC[C@H](N)C(=O)O; PEG6′ = not defined here; Hexanoyl = CCCCCC(=O)*; Ahx = NCCCCCC(=O)O; GABA = NCCCC(=O)O
# Key:
# [1] = biological target: T1, human fibroblast activation protein (FAP) on WI-38 fibroblasts (human, UniProt Q12884 1-760); test: competitive FACS, WI-38 cells, Cy5-labeled peptide as competitor; B = pIC50 7.1 to 8.0
# T1 construct: FAP-expressing human WI-38 fibroblasts (ECACC)
# [2] = biological target: T2, Recombinant human FAP (R&D systems, #3715-SE) (human, UniProt Q12884 26-760); test: cell-based or functional assay
# [3] = biological target: Recombinant human FAP (R&D systems, #3715-SE) (human, UniProt Q12884 26-760); test: cell-based or functional assay; remark: listed apart in the source
# [4] = biological target: T3, fibroblast activation protein (FAP) on FAP-expressing human WI-38 fibroblasts (human, UniProt Q12884 1-760); test: competitive FACS, WI-38 cells, vs Cy5 tracer m3; D = pIC50 <=6.0
# T3 construct: also called human FAP
# [5] = biological target: T4, human fibroblast activating protein (FAP) on WI-38 fibroblasts (human, UniProt Q12884 1-760); test: competitive FACS on WI-38 cells vs 3 nM Cy5-labeled peptide; pIC50 category B = 7.1-8.0
# T4 construct: FAP-expressing human WI-38 fibroblasts (ECACC)
# [6] = biological target: T2, Recombinant human FAP (R&D systems, …); test: SPR (Biacore T200), FAP captured on anti-FAP antibody, single cycle kinetics
Binder,pIC50 [1] [pic50],pIC50 Category (Activity) [3],pIC50 Category (FACS) [4] [pIC50],pIC50 [5] [pic50],also measured
"N4Ac-E(AGLU′)E(AGLU′)[Ttds″][Nle]CPPTEFC-OH (linker 5-11 via 3MeBn(3); reading uncertain; also: printed as N4Ac-Glu(AGLU′)-Glu(AGLU′)-Ttds-Nle-[Cys-(3MeBn)-Pro-Pro-Thr-Glu-Phe-Cys]-OH, also called 3BP-4266) [N4Ac-Glu(AGLU′)-Glu(AGLU′)-Ttds-Nle-[Cys-(3MeBn)-Pro-Pro-Thr-Glu-Phe-Cys]-OH]",7.1 to 8,,,,
"H-[Ahx][Ttds][Nle]CPPTQFCD-NH2 (linker 4-10 via tMeBn(DOTA-PP); SMILES CCCC[C@H](NC(=O)CCC(=O)NCCCOCCOCCOCCCNC(=O)CCCCCN)C(=O)N[C@H]1CSCc2cc(cc(CN3CCN(C(=O)CN4CCN(CC(=O)O)CCN(CC(=O)O)CCN(CC(=O)O)CC4)CC3)c2)CSC[C@@H](C(=O)N[C@@H](CC(=O)O)C(N)=O)NC(=O)[C@H](Cc2ccccc2)NC(=O)[C@H](CCC(N)=O)NC(=O)[C@H]([C@@H](C)O)NC(=O)[C@@H]2CCCN2C(=O)[C@@H]2CCCN2C1=O, also called 3BP-4004) [H-Ahx-Ttds-Nle-[Cys-(tMeBn(DOTA-PP))-Pro-Pro-Thr-Gln-Phe-Cys]-Asp-NH2]",7.1 to 8,,,,pIC50 Category (Activity) [2]: > 8 pIC50
"Hexanoyl-CPPTQFCD[GABA]R[Ttds″][Ttds″][Ttds″]K(AF488)-NH2 (linker 1-7 via tMeBn(LuDOTA-AET); also: Lu complexed by DOTA, also called 3BP-4373) [Hex-[Cys(tMeBn(LuDOTA-AET))-Pro-Pro-Thr-Gln-Phe-Cys]-Asp-Gab-Arg-Ttds-Ttds-Ttds-Lys(AF488)-NH2]",7.1 to 8,,,,pIC50 Category (Activity) [2]: > 8 pIC50
"Hexanoyl-CP[Pro(4S-NH2)]TEFC-NH2 (linker 1-7 via mXylylene; SMILES CCCCCC(=O)N[C@H]1CSCc2cccc(c2)CSC[C@@H](C(N)=O)NC(=O)[C@H](Cc2ccccc2)NC(=O)[C@H](CCC(=O)O)NC(=O)[C@H]([C@@H](C)O)NC(=O)[C@@H]2C[C@H](N)CN2C(=O)[C@@H]2CCCN2C1=O, also called 3BP-3367) [Hex-[Cys(3MeBn)-Pro-Tap-Thr-Glu-Phe-Cys]-NH2]",,6.1 pIC50 and 7 pIC50,≤ 6,,
"Hexanoyl-CPPTEF[Pen]-NH2 (linker 1-7 via mXylylene; SMILES CCCCCC(=O)N[C@H]1CSCc2cccc(c2)CSC(C)(C)[C@@H](C(N)=O)NC(=O)[C@H](Cc2ccccc2)NC(=O)[C@H](CCC(=O)O)NC(=O)[C@H]([C@@H](C)O)NC(=O)[C@@H]2CCCN2C(=O)[C@@H]2CCCN2C1=O, also called 3BP-3351) [Hex-[Cys(3MeBn)-Pro-Pro-Thr-Glu-Phe-Pen]-NH2]",,6.1 pIC50 and 7 pIC50,≤ 6,,
"Hexanoyl-CPPTE[NMeF]C-NH2 (linker 1-7 via mXylylene; SMILES CCCCCC(=O)N[C@H]1CSCc2cccc(c2)CSC[C@@H](C(N)=O)NC(=O)[C@H](Cc2ccccc2)N(C)C(=O)[C@H](CCC(=O)O)NC(=O)[C@H]([C@@H](C)O)NC(=O)[C@@H]2CCCN2C(=O)[C@@H]2CCCN2C1=O, also called 3BP-3358) [Hex-[Cys(3MeBn)-Pro-Pro-Thr-Glu-Nmf-Cys]-NH2]",,6.1 pIC50 and 7 pIC50,≤ 6,,
"Hexanoyl-CP[Pro(4,4-F2)]TEFC-NH2 (linker 1-7 via mXylylene; SMILES CCCCCC(=O)N[C@H]1CSCc2cccc(c2)CSC[C@@H](C(N)=O)NC(=O)[C@H](Cc2ccccc2)NC(=O)[C@H](CCC(=O)O)NC(=O)[C@H]([C@@H](C)O)NC(=O)[C@@H]2CC(F)(F)CN2C(=O)[C@@H]2CCCN2C1=O, also called 3BP-3365) [Hex-[Cys(3MeBn)-Pro-4Dfp-Thr-Glu-Phe-Cys]-NH2]",,6.1 pIC50 and 7 pIC50,≤ 6,,
"{N4Ac-PEG6′-Ttds(4)}-[Nle]CPPTEFC-OH (linker 2-8 via 3MeBn, also called 3BP-4780) [N4Ac-PEG6-Ttds-Nle-[C(3MeBn)-PPTEFC]-OH]",,,,7.1 to 8,
"{NODAGA′-Ttds(4)}-[Nle]CPPTEFC-OH (linker 2-8 via mXylylene, also called 3BP-4714) [NODAGA-Ttds-Nle-[C(3MeBn)-PPTEFC]-OH]",,,,7.1 to 8,
"{N4Ac-PPAc-Ttds(4)}-[Nle]CPPTEFC-OH (linker 2-8 via 3MeBn, also called 3BP-4782) [N4Ac-PPAc-Ttds-Nle-[C(3MeBn)-PPTEFC]-OH]",,,,7.1 to 8,
"{N4Ac-PPAc-PEG6′}-[Nle]CPPTEFC-OH (linker 2-8 via 3MeBn, also called 3BP-4781) [N4Ac-PPAc-PEG6-Nle-[C(3MeBn)-PPTEFC]-OH]",,,,7.1 to 8,
"{NODAGA′-Ttds(4)}-[Nle]CPPTEFC-NH2 (linker 2-8 via mXylylene, also called 3BP-4743) [NODAGA-Ttds-Nle-[C(3MeBn)-PPTEFC]-NH2]",,,,7.1 to 8,
"N4Ac-E[Ttds″][Nle]CPPTEFC-OH (linker 4-10 via 3MeBn, also called 3BP-4222) [N4Ac-Glu-Ttds-Nle-[Cys-(3MeBn)-Pro-Pro-Thr-Glu-Phe-Cys]-OH]",7.1 to 8,,,,pKD Category [6]: > 8 pKD
